From patent US20250195578A1, “MEDIUM COMPOSITION FOR CULTURING URINE-DERIVED STEM CELL, METHOD FOR ISOLATING AND CULTURING URINE-DERIVED STEM CELL USING SAME, URINE-DERIVED STEM CELL WITH IMPROVED THERAPEUTIC FUNCTION FOR RENAL DISEASE, AND CELL THERAPY PRODUCT COMPOSITION CONTAINING SAME” (EHLBIO CO., LTD., priority 2021, published 2025)

B1: FGF23: growth factor added to the culture medium (Sigma-Aldrich) (protein, UniProt Q9GZV9 25-251, looked up)
Fibroblast growth factor 23: YPNASPLLGSSWGGLIHLYTATARNSYHLQIHKNGHVDGAPHQTIYSALMIRSEDAGFVVITGVMSRRYLCMDFRGNIFGSHYFDPENCRFQHQTLENGYDVYHSPQYHFLVSLGRAKRAFLPGMNPPPYSQFLSRRNEIPLIHFNTPIPRRHTRSAEDDSERDPLNVLKPRARMTPAPASCSQELPSAEDNSPMASDPLGVVRGGRVNTHAGGTGPEGCRPFAKFI
B2: PTH: parathyroid hormone (PTH), medium additive (Sigma-Aldrich) (peptide, UniProt P01270 32-115, looked up)
Parathyroid hormone: SVSEIQLMHNLGKHLNSMERVEWLRKKLQDVHNFVALGAPLAPRDAGSQRPRKKEDNVLVESHEKSLGEADKADVNVLTKAKSQ
modifications: Parathyroid hormone

Columns and labels:
[1] = test system: urine-derived stem cells; assay: Optimal additive concentration: cell proliferation rate of urine-derived stem cells; format: cell-based, human; details: enhancement in proliferation relative to added dosage
Experimental: (§1) In this Example, cell proliferation rate or klotho gene analysis was conducted with various concentrations of lipid mixture (CDLC), T3, FGF23, Calcifediol, and PTH in the TM8 culture medium to explore their optimal concentrations (see FIG. 5).
Specifically, CDLC was used to compensate for the decrease in cell proliferation rate caused by low serum usage, while T3 was used to facilitate the proliferation of urine-derived stem cells with characteristics of epithelial cells. In this example, evaluation was made of the improvement of cell proliferation rate in urine-derived stem cells in various concentration ranges of lipid mixture and T3 to determine their optimal concentrations.
(§2) Additionally, in this Example, to explore the optimal concentrations while excluding the interactions among the substances, each substance was individually added to the TM8 basal medium (hereinafter referred to as proliferation or klotho gene TM8-Basal), and cell expression was analyzed and compared. The TM8 medium containing all substances at their optimal concentrations was used as the control group (FIG. 6).

[2] = test system: klotho gene; assay: Optimal additive concentration: klotho gene expression in urine-derived stem cells; format: cell-based, human; details: for effect on klotho gene expression of addition to TM8 medium: compared to control group, dose-dependent; for optimal concentration (klotho gene expression): enhancement in gene expression relative to added dosage
Experimental: as §1
Furthermore, FGF23, Calcifediol, and PTH that are added to the culture medium of the present disclosure are growth factors and hormones that interact through the endocrine system in the human kidney. The klotho proteins in the human body mediate these interactions. The inventors aimed to enhance the expression of klotho proteins in urine-derived stem cells by mimicking the endocrine system in the human body through the composition of the culture medium. In this Example, evaluation was made of the enhancement of klotho gene expression in urine-derived stem cells in various concentration ranges of FGF23, Calcifediol, and PTH to determine their optimal concentrations.
as §2

Molecule | optimal concentration (cell proliferation) [1] | effect on klotho gene expression of addition to TM8 medium [2] | optimal concentration (klotho gene expression) [2]
N[C@@H](Cc1cc(I)c(Oc2ccc(O)c(I)c2)c(I)c1)C(=O)O [T3, Triiodo-L-thyronine] | 10 nM |  | 
C=C1CC[C@H](O)C/C1=C/C=C1\CCC[C@]2(C)[C@@H]([C@H](C)CCCC(C)(C)O)CC[C@@H]12 [Calcifediol, reference compound] |  | increased klotho gene expression | 100 nM
B1 |  | increased klotho gene expression | 10 ng/mL
B2 |  | increased klotho gene expression | 100 nM
